First the molecules themselves.
B1: ATP synthase subunit 9, mitochondrial (Neurospora crassa (strain ATCC 24698 / 74-OR23-1A / CBS 708.71 / DSM 1257 / FGSC 987)), P00842 (parent)
chain: MASTRVLASRLASQMAASAKVARPAVRVAQVSKRTIQTGSPLQTLKRTQMTSIVNATTRQAFQKRAYSSEIAQAMVEVSKNLGMGSAAIGLTGAGIGIGLVFAALLNGVARNPALRGQLFSYAILGFAFVEAIGLFDLMVALMAKFT
partner: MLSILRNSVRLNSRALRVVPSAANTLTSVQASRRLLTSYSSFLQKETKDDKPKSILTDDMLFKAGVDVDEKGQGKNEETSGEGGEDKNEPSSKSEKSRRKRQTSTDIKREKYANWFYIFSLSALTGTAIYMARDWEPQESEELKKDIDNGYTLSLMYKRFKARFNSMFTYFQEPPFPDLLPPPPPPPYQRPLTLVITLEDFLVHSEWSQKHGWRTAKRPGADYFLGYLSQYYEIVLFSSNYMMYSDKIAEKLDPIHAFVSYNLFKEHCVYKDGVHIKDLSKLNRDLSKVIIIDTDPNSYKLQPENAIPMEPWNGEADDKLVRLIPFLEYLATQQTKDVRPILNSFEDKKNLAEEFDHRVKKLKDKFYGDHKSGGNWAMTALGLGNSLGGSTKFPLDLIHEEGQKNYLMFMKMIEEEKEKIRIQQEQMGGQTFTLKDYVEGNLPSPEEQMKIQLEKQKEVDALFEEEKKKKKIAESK
B2: Mitochondrial import inner membrane translocase subunit TIM50 (Saccharomyces cerevisiae), Q02776 (parent)
chain: B1 partner

In one assay the parent is B1. The note with it: with tim50_yeast TIM50, Q02776.
L7Q;A12Q;A16Q;A17Q: the “effect of a mutation on the interaction” value was “disrupting interaction”.

A further assay covers variants of B2. The conditions noted are these: with atp9_neucr oli.
On to L434N, for which the “effect of a mutation on the interaction” value is recorded as “decreasing interaction”.

Variants of B2 are the subject of the next assay. The conditions noted are these: with atp9_neucr oli. This is another data set of the same source.
Consider I413A;D436A, for which the “effect of a mutation on the interaction” value was “disrupting interaction”.

The next assay covers variants of B2. The note with it: with atp9_neucr oli. The source holds these as a separate data set.
For E414A, the “effect of a mutation on the interaction” value is recorded as “decreasing interaction”.

In a further assay the parent is B2. The note with it: with atp9_neucr oli. This is another data set of the same source.
Regarding E415A, the “effect of a mutation on the interaction” value was “decreasing interaction”.

The record behind these values is IntAct's records for PubMed 24462684.
